Measurements from patent publication US20210155907.

Experiments:
Assay in all cases: cell_activity
[1] = tested on: TAL4-Tet1-CD (KLF4 site 4); conditions: CpG demethylation 13 bp downstream, no other CpGs significant; K562 cells
[2] = tested on: KLF4 six-finger ZF-Tet1 fusion (engineered); conditions: CpG demethylation 6 bp downstream (25% at 24 bp); K562 cells; one of two KLF4 ZF-Tet1 proteins
[3] = tested on: TAL1-Tet1-CD (TAL effector repeat array to KLF4 site 1, Gly3Ser linker, Tet1 catalytic domain); conditions: CpG demethylation 15 bp downstream of site (32.5% at 9 bp); K562 cells, bisulfite sequencing
[4] = tested on: TAL3-Tet1-CD (KLF4 site 3); conditions: CpG demethylation at 22, 36, 116 and 143 bp downstream; K562 cells
[5] = tested on: TAL2-Tet1-CD (KLF4 site 2); conditions: CpG demethylation 17 bp downstream (28.2% at 27 bp, none at 1 and 3 bp); K562 cells

How did the activity [1] turn out when “GGGGGCGGGCGGAGCCTTGGGGTCACCAAGAGCCACTGAACGAGGGTAAGGAGCGGCCACCGCGCGGACTCCGCAACCTTCCCGGGATAGCTTCCGTGTCCTTGGCTCAGCTGTGTATGCCCGTGGTGCGAGCACTGCGGAGCCGCCTGGGGCGCAAGCCGGGTCTTCACCAGTCCCCGGGCGCGCTGTCGGTAGGGCGGGCGCTCTCGGGCCACCGGGCGGGAGGTGGCCGCGTCCCCAGACACTGGCTGGGCCAGAGTGAGTTTAGCGCGTAGGCGGC (double strand) [KLF4 intron 1-2 TAL site 4]” was run?
Its activity is 37%.

With KLF4 locus ZF site as the substance, how does the activity [2] read?
The activity was 68%.

“GGGGGCGGGCGGAGCCTTGGGGTCACCAAGAGCCACTGAACGAGGGTAAGGAGCGGCCACCGCGCGGACTCCGCAACCTTCCCGGGATAGCTTCCGTGTCCTTGGCTCAGCTGTGTATGCCCGTGGTGCGAGCACTGCGGAGCCGCCTGGGGCGCAAGCCGGGTCTTCACCAGTCCCCGGGCGCGCTGTCGGTAGGGCGGGCGCTCTCGGGCCACCGGGCGGGAGGTGGCCGCGTCCCCAGACACTGGCTGGGCCAGAGTGAGTTTAGCGCGTAGGCGGC (double strand) [KLF4 intron 1-2 TAL site 1]” was tested. Which activity [3] did it give?
The activity was 45.4%.

“GGGGGCGGGCGGAGCCTTGGGGTCACCAAGAGCCACTGAACGAGGGTAAGGAGCGGCCACCGCGCGGACTCCGCAACCTTCCCGGGATAGCTTCCGTGTCCTTGGCTCAGCTGTGTATGCCCGTGGTGCGAGCACTGCGGAGCCGCCTGGGGCGCAAGCCGGGTCTTCACCAGTCCCCGGGCGCGCTGTCGGTAGGGCGGGCGCTCTCGGGCCACCGGGCGGGAGGTGGCCGCGTCCCCAGACACTGGCTGGGCCAGAGTGAGTTTAGCGCGTAGGCGGC (double strand) [KLF4 intron 1-2 TAL site 3]” was tested. Which activity [4] did it give?
The activity was over 25%.

Which activity [5] does the source give for “GGGGGCGGGCGGAGCCTTGGGGTCACCAAGAGCCACTGAACGAGGGTAAGGAGCGGCCACCGCGCGGACTCCGCAACCTTCCCGGGATAGCTTCCGTGTCCTTGGCTCAGCTGTGTATGCCCGTGGTGCGAGCACTGCGGAGCCGCCTGGGGCGCAAGCCGGGTCTTCACCAGTCCCCGGGCGCGCTGTCGGTAGGGCGGGCGCTCTCGGGCCACCGGGCGGGAGGTGGCCGCGTCCCCAGACACTGGCTGGGCCAGAGTGAGTTTAGCGCGTAGGCGGC (double strand) [KLF4 intron 1-2 TAL site 2]” here?
The activity was 36.5%.
